From article PMC5748983

Molecular target: GST-DENN-4 (C. elegans)
Test: pull-down

fold increase of pull-down with HA-LET-413 added, against without: 3 fold
B1: HA-RAB-10(T23N) (natural protein)
chain: MARRPYDMLFKLLLIGDSGVGKNCILYRFSDDAFNTTFISTIGIDFKIKTIELKGKKIKLQIWDTAGQERFHTITTSYYRGAMGIMLVYDITNAKSFDNIAKWLRNIDEHASEDVVKMILGNKCDMSDRRVVSRERGEKIAQDHGISFHETSAKLNVHVDTAFYDLAEAILAKMPDSTDEQSRDTVNPVQPQRQSSSGGCC
